± gives the half width of the 95% confidence interval.
Experiment: folding stability dG unfold (combined trypsin and chymotrypsin); higher = more stable
Description: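 Folding stability of de novo designed mini-proteins (<80 aa, no Cys; designed by TrROS, TrMRF, ProteinMPNN and the joint model) was measured by cDNA display proteolysis with trypsin and chymotrypsin. Each protease was used at 11 concentrations in a threefold dilution series plus a no-protease condition. K50 was inferred by Bayesian fitting of sequencing counts, and dG unfold was derived against a sequence-predicted unfolded-state K50 (Tsuboyama et al. method). Sequences shown include variable-length N-terminal GS-type padding (SAGGSAGG...) inside a display construct carrying a PA tag. Rows were kept only if the AF2 dimer inter-PAE was >15, to exclude likely homo-oligomers.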

| Sequence | folding stability dG unfold [kcal/mol] |
| --- | --- |
| SAGGSAGGSPYKEIPFRFPENGYKVHIKKDPNGSVKIYVMGPNMRERTIPPDEPLEIEPGARLSAGGSAGGS [r12_1003_TrROS] | -0.46 ± 0.63 |
| SAGGSAGGSRTIHIPHNAMDKMPPSFEKKIRELADELNIDIEHNNNWMTIPVKGLTEEAIKEFSAGGSAGGS [r12_945_TrROS] | < -1 |
| SAGGSAGGSSMPVLPVRTEEFPHPDSVYTVTTTRYPPTGATVTVLSTRFPGPPEVVTSTTVTPSAGGSAGGS [r12_14_JUSTAS] | < -1 |
| SAGGSAGGSSMSFSFSERRDGKEYSVSVTTAVTPLTLPNGTLRTLTTPTTTVTDPSGKVLSTSSAGGSAGGS [r20_224_JUSTAS] | < -1 |
| SAGGSAGGSSMTPVSSTRSSPSNSVTYTTSRIPIDPSPGKVLNVTTTYSPDPSVTTTTTTVEPSSAGGSAGG [r6_13_JUSTAS] | < -1 |
| SAGGSAGGSTIPIRDPNREIEIVKHPDNMYRIEIEPNGGKREIILPPEAMQQKPITIEELIDQSAGGSAGGS [r20_90_TrROS] | < -1 |
| SAGGSAGGSTMEKLQDKAKELGPNVSVEPSQDGPDSIKITFDPDHPKKIKDIAKEYGIKVQIYSAGGSAGGS [r12_74_TrROS] | < -1 |
| SAGGSAGGSVKELAKKAGIKDIDVEPHPNDGWVEIKITMKNPKNGKKREGNILIRDPKDGEPLSAGGSAGGS [r12_133_TrROS] | < -1 |
| SAGGSAGGSVKITRTPNGYYTVKIEDPGGVPVEIPVPADDPGMTNKEAEDEVKPIAKEFKRLKSAGGSAGGS [r12_642_TrROS] | < -1 |
| SAGGSAGGSVVPIEYDEDGMLKIEHRNNDKKREHTIPADDADEMPPDFLKDLPPDKIDEITPYSAGGSAGGS [r12_793_TrROS] | < -1 |
| SAGGSAGGSYKLGSKLIKEVTSEATPGPSTLETITLEDKTYPITLVGDSLNISPELKKAIELNSAGGSAGGS [r20_92_JUSTAS] | < -1 |
| SAGGSAGGVRVRVVYPDGEPIGEIDIQLPPEMPQDQRQVKELAENIASRFKENGRKVKVEIEPPSAGGSAGG [r6_884_TrROS] | < -1 |
| SAGGSAGGVSKVLEVRPAPGSGTYTVRTLREDPATGTTTEEVLTIPTSRPEVVDSLPPDATVELSAGGSAGG [r6_979_JUSTAS] | < -1 |
| SAGGSAKITIEPVKDQYRIEIKIPVFDPNGKKDPIEIPMYMPPDDPERMKDQILDWAREKNPDLIISAGGSA [r15_1050_TrROS] | < -1 |
| SAGGSAKIVIPGMSPSMIRHAIKEGVKKIHIVWPNPEQAKGFKKELEKEDGIPIKVVPAEEAKKLESAGGSA [r15_243_TrROS] | < -1 |
| SAGGSAKVTVDEKDLKVTVESNIPVLVTYTLPGGKKKPFAGYLPPEKIEEFAKKEAEKFATELLGKSAGGSA [r15_365_TrMRF] | < -1 |
| SAGGSAMERRTFNLPADRVSPEVLLEKLKAVGLTPTEIKPVPDGVEVVVEYDPSKVEKLEKALKEGSAGGSA [r15_161_JUSTAS] | < -1 |
| SAGGSAMFEVRKLSEDPSTGVTTELITLPDGKEVTVTTTTDSSGNPTVTVTFPDGTVLSLEEVELESAGGSA [r15_832_JUSTAS] | < -1 |
| SAGGSAMIEVETRPLPTPRELVTVKFDSEELLPEVIEKLPGVEEVEVSESKGDGKPYYTATFVIPRSAGGSA [r15_344_JUSTAS] | < -1 |

| Sequence | folding stability dG unfold [kcal/mol] |
| --- | --- |
| SAGGSAMTLVEEVPVAPGTLVEAESIAVSPEGKIYRSRVEGLEPGRARVTVPVEELPGNLEDPELISAGGSA [r15_909_JUSTAS] | < -1 |
| SAGGSAMVIEVEEEALSEEEAEEIKEEKLKEAKEKLPGEEPVELDIKVTVTVKEPEEKPYKKNILKSAGGSA [r15_663_JUSTAS] | < -1 |
| SAGGSANFKIRMPNGRPMDIQPDPEGETWVIRMPGGHIIPIEIKDGKLKDIKILPGMPPNWSIEPVSAGGSA [r15_709_TrROS] | < -1 |
| SAGGSAPDFKIKDIKIPHRRNPNGMYRVEIKLEVPDGRKIPIEVPYNEDGKPTPEQIENAAKELAKSAGGSA [r15_233_TrROS] | < -1 |
| SAGGSAPEPYTFKMKNPKGPPVEITITRNPNNGNYMISVEMPGPGKKHEGPMPMEDLNNLPGLEPVSAGGSA [r15_622_TrROS] | < -1 |
| SAGGSAPPPKMKRIELKVEDPEHGYEVRVEVMIYPNDSISIQYESPNGKPLPKERAQKLLKELGIESAGGSA [r15_872_TrROS] | < -1 |
| SAGGSAPVIPVKSEEEAKEVAKAASPDKDLLFKYPKGNVKLITIDPKNGPKITVKETLPVSPEKALSAGGSA [r15_577_JUSTAS] | < -1 |
| SAGGSATIKIPPGMDMEIDDVELNPDDKTVEVEITFGDGPMKARITPNGQKEIEMPNGQPFTIPIDSAGGSA [r15_111_TrROS] | < -1 |
| SAGGSATTTEKWTIGDPSGPPRTVDLTKLPNSDEYLITVTYPDPNHTETGLLSEEEIKKIPNAVPKSAGGSA [r15_622_JUSTAS] | < -1 |
| SAGGSEEFEFRDPFNGEEFEVTRDPNNGELDVEYPNGWKMRISITDDRFEIVEMKPVPPPPVDPDQKSAGGS [r16_687_TrROS] | < -1 |
| SAGGSGNPNAPVPYIPKGYKTVPIPLKGDPNASEEELKKKLEEAKEKIKKEIDPTPDGIPIEINEGSAGGSA [r2_149_JUSTAS] | < -1 |
| SAGGSGTTSPVLVEETVFTDGSATYTRKKVELEEVERPPVPPVEIPEEAREAGLAGDYEAAEAILASAGGSA [r2_196_JUSTAS] | < -1 |
| SAGGSKDKKMPPEQAKQVQVRVEIPIRVYRPGDGGEPHDFPIEIWGPMKSPEEADKEVNDAIDEFFSAGGSA [r2_244_TrROS] | < -1 |
| SAGGSMPLETLETTGEYVPGTGVYVTKLAVGDPKSDVSFSVTETRPTTDPVTGTPSLYSKPVSFSYKKSAGG [r19_129_JUSTAS] | < -1 |
| SAGGSMTELIPTPPSATTLNVTKTVPDPRTGTTVTTNVTVEVVPEGDGYVATVYYDPSGRPVKRSLSAGGSA [r2_123_JUSTAS] | < -1 |
| SAGGSNPLLDELKDKPFRLPNIRDPGNGRDFPGVPIKIKEAEPPKDDGKISIKVEHPDGPYEMQIDSAGGSA [r2_314_TrROS] | < -1 |
| SAGGSPKIQIDQYNPNDYYVRIEYPGNGNTHEIPFRGSKGELAKKLEDEAEEHNMPIDVEIYPPDDSAGGSA [r2_161_TrROS] | < -1 |
| SAGGSPPLVVEEELLSEKTLPEPGTGTVTLTRRTIRDPTADVEWEERFTVTTPPDGSVEVSSTRERLLSAGG [r13_917_JUSTAS] | < -1 |
| SAGGSTVTVEVETEEEAEALLQGLPELEEVVVVIPGEGEPVEKPVKIEPPAPGVLGETPLPRPSPRLLSAGG [r13_183_JUSTAS] | < -1 |

| Sequence | folding stability dG unfold [kcal/mol] |
| --- | --- |
| SAGGSTVVTEVSVSPGNPTLTLDSKTPDGKVVAKRVAAPADATATFEVKQTINGNPVITTVTQAPEASAGGS [r16_672_JUSTAS] | < -1 |
| SAGGSVDVDEEEAEKLIEEALKKGLEVTITARLPDGGVRVLKYEGPDRKRTVIEELPVPPSPLNPALLSAGG [r13_839_JUSTAS] | < -1 |
| SAGGSVEISEEELEKLIEEGRVDKKEEYPEGVPSKKYETEKLGKELGKPITINVTTTPDGKAVAKVLKSAGG [r13_163_JUSTAS] | < -1 |
| SAGGSVLPPDAVVYGTETRPFPNGETVEVERERRFPPRPPAPAGVLVEYPDGTVVPAPSPEEAAALLSAGGS [r16_580_JUSTAS] | < -1 |
| SAGGTVREIKEILKEKGWPVKNVEPGPNGNYTVQLRRPRGKPFKINIPSDNPEEQQALREAIPPDFVSAGGS [r16_821_TrROS] | < -1 |
| SAGIKEIAKKLGMPPNNIKIKNIQPQPRRKPDPEDGKPEPEPYPTVSVEIEAPGNGKKREASIPADEIQSAG [r5_517_TrROS] | < -1 |
| SAGIKPGDPLIIKFNFPPEARDKIKKLLEDPGFTYENDPDKGSVSIVFPAADVDRLQDLPGISEIVPVSAGG [r19_212_TrROS] | < -1 |
| SAGIVIPFEELKEFMSDEEIEDIAREFAQDNGYPPKKIEIEPHPNPGDWITIKAEPDNGNKAPIVFRLPSAG [r5_745_TrROS] | < -1 |
| SAGKERTWRIYVPKNMPPGRPFEGELELNPNGERDVRISWPGGKTRKIKSPDDIKELAKSGYPIMIEPVSAG [r5_42_TrROS] | < -1 |
| SAGMDIYTETVVPLRVETDEEEIEEIIEKAKEEAEKKGYKPVEIPVETEPSPEGKTLVTIPVKLLKKAPSAG [r14_109_JUSTAS] | < -1 |
| SAGMDKPVATFTRQKTPDGTEVLHVTVTTTAAGTGTTDPSTFTFPAGSDPAVVAAKVRAAGVAAVAFEPSAG [r5_37_JUSTAS] | < -1 |
| SAGMIVKTVTVSPEVPPEEVAERLKRENPWIKEVKPEKVTSVTVPNPGKTLLTVTITIELDDVPEEVLKSAG [r5_326_JUSTAS] | < -1 |
| SAGMKITFPDGFKEIEVYEDPNYPYIEIPLPGGSIRYDLKDGPIEIEPPGDNRPIRFPIPPGDTITLPSAGG [r19_138_TrROS] | < -1 |
| SAGMPESEVIPLPDGSVVEVRRWPDSELRFVFPPGGPATVERHDTRTGTVETTPVSAADPEAAAAAVLASAG [r5_674_JUSTAS] | < -1 |
| SAGMPPVRVVQAPSTVYTDPSPPTLTVESVFTGEGRLSTTSSTVPAPPELADLPAGAAVSRSFTVTVLPSAG [r5_714_JUSTAS] | < -1 |
| SAGMPRLVTVEMVVLRVVPVYDPEGKPVREEPREERRTRTAPLAEAQAEIDALPPDEEVTEILRVEPESAGG [r19_114_JUSTAS] | < -1 |
| SAGMTPEELEAGRPVERTIPLEIQHPEGNPIATYNITGTLTMEELKKLKEEIREEAKKKGIPPNLNTSLSAG [r5_606_JUSTAS] | < -1 |
| SAGMVKIKIYVENPETGEEKELEIVKEFESEEEAEKEAEKIAKELEKAGYKVKKIEIEVIPLPPLPENPSAG [r5_660_TrMRF] | > 6 |
| SAGPKIEIEPLDWERDPGNGHMVIPVEISVKVPREENGRPPEQAEEKKESLVREFAREWAPKHGMPIHVSAG [r5_333_TrROS] | < -1 |
